From PMC2275626
pKi: −log10 of the molar value. Where “and” joins values, the source holds several entries; their conditions need not be identical. Equal entries are not always repeated.

Target: acetamidofluorescein-F-actin on antifluorescein IgG-Sephacryl S-1000 beads (rabbit) (UniProt P68135)
Experiment: co-sedimentation

myosin subfragment-1 (domain or fragment), sequence (Q28641 whole entry, the tested form may be a part): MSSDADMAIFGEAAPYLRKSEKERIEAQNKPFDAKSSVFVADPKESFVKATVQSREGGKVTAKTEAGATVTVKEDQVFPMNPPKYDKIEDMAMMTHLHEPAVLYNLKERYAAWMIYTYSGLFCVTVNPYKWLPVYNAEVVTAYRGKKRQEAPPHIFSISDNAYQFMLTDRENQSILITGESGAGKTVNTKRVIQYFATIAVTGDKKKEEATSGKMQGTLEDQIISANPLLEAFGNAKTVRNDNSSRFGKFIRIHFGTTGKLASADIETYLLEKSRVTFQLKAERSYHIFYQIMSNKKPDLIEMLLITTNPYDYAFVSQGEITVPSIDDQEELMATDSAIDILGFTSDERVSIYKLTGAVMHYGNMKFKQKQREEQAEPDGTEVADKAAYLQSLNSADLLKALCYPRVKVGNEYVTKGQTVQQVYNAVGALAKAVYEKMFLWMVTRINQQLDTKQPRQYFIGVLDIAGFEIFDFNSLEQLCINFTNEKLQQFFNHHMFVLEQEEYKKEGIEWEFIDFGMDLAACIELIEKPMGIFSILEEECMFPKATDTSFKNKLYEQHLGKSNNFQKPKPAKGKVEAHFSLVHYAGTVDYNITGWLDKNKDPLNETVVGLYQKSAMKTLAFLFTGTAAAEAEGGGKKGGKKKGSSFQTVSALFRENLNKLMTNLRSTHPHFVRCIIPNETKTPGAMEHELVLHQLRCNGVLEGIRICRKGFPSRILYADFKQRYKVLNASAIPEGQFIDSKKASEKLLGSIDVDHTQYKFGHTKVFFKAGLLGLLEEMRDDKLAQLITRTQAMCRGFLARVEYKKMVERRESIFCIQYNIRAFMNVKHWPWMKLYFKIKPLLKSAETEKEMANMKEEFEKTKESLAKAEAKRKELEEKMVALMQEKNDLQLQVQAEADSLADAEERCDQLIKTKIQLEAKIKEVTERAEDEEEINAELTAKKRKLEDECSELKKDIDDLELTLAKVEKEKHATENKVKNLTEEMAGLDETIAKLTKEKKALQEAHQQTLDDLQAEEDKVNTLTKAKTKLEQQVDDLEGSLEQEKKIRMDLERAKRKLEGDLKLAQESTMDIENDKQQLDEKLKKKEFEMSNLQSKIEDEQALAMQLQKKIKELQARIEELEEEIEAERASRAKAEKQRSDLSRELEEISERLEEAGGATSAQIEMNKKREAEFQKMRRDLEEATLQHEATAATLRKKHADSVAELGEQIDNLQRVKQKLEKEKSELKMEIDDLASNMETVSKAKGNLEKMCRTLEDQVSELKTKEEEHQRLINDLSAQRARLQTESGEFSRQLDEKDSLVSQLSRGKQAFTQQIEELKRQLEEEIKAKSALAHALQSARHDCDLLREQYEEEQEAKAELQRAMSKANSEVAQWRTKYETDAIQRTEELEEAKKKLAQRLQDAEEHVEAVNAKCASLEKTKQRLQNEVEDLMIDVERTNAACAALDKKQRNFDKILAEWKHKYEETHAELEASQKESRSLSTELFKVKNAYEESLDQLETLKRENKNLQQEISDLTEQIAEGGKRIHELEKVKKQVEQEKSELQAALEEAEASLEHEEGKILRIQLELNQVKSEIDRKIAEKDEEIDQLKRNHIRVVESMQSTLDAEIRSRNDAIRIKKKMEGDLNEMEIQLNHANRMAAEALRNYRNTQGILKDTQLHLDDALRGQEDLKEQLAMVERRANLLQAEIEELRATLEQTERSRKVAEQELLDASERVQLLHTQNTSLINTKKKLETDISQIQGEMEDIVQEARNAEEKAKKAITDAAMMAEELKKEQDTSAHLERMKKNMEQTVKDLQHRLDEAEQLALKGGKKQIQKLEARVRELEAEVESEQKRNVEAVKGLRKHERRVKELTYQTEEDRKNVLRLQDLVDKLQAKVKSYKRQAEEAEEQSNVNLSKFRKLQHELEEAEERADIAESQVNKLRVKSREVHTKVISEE

## myosin subfragment-1 (domain or fragment)
  pKi: 7.40 and 7.60 and 7.10
